Data taken from the DeepSol protein solubility set.

Assay: soluble on expression in E. coli; label from the status in PepcDB or PDB records

Sequence	soluble on expression in E. coli
MSLWYNRAMKHFDTIVIGGGPAGMMATISSSFYGQKTLLIEKNRKLGKKLAGTGGGRCNVTNNGSLDNLLAGIPGNGRFLYSVFSQFDNHDIINFFTENGVKLKVEDHGRVFPASDKSRTIIEALEKKITELGGQVATQIEIVSVKKVDDQFVLKSADQTFTCEKLIVTTGGKSYPSTGSTGFGHEIARHFKHTITDLEAAESPLLTDFPHKALQGISLDDVTLSYGKHVITHDLLFTHFGLSGPAALRMSSFVKGGEVLSLDVLPQLSEKDLVTFLEENREKSLKNALKTLLPERLAEFFVQGYPEKVKQLTEKEREQLVQSIKELKIPVTGKMSLAKSFVTKGGVSLKEINPKTLESKLVPGLHFAGEVMDINAHTGGFNITSALCTGWVAGSLHYDEGHHHHHH	soluble
MIIGYARVSSLDQNLERQLENLKTFGAEKIFTEKQSGKSIENRPILQKALNFVRMGDRFIVESIDRLGRNYNEVIHTVNYLKDKEVQLMITSLPMMNEVIGNPLLDKFMKDLIIQILAMVSEQERNESKRRQAQGIQVAKEKGVYKGRPLLYSPNAKDPQKRVIYHRVVEMLEEGQAISKIAKEVNITRQTVYRIKHDNGLSSHHHHHH	soluble
MGSDKIHHHHHHMTVRTRVTDLLEIEHPILMGGMAWAGTPTLAAAVSEAGGLGIIGSGAMKPDDLRKAISELRQKTDKPFGVNIILVSPWADDLVKVCIEEKVPVVTFGAGNPTKYIRELKENGTKVIPVVASDSLARMVERAGADAVIAEGMESGGHIGEVTTFVLVNKVSRSVNIPVIAAGGIADGRGMAAAFALGAEAVQMGTRFVASVESDVHPVYKEKIVKASIRDTVVTGAKLGHPARVLRTPFARKIQEMEFENPMQAEEMLVGSLRRAVVEGDLERGSFMVGQSAGLIDEIKPVKQIIEDILKEFKETVEKLRGYIEE	soluble
MRGKNTGKQRRSIKKQQTVAELKHLFDAPGRGSVMPRQVLWGDLCLTAFPHELNSESTAPMHRYILLSIIRIPLPLTLESQRSLTLVKRCFRRSSVLSSTLYSRLGSTTF	not soluble
MSGAGKKIADVAFKASRTIDWDGMAKVLVTDEARREFSNLRRAFDEVNTQLQTKFSQEPEPIDWDYYRKGIGAGIVDKYKEAYDSIEIPKYVDKVTPEYKPKFDALLVELKEAEQKSLKESERLEKEIADVQEISKKLSTMTADEYFEKHPELKKKFDDEIRNDNWGY	soluble
GMTSPVAVIARFMPRPDARSALRALLDAMITPTRAEDGCRSYDLYESADGGELVLFERYRSRIALDEHRGSPHYLNYRAQVGELLTRPVAVTVLAPLDEASA	soluble
SLINNLSTHSYWPNRGQLEVQGLTVKYTEAGRAVLNDISFSVDGGQSVGLLGRTGSGKSTLLSALLGLNYTEGEMFIDGVSSSSMPLEAWRKAFGVVPQKVFILTGTFRMNLDPYGRYSDDELWRVAEEVGLKSVIEQFPDKLDFELKDGGSVLSNGHKQLMCLARSILSKARILLLDEPSSYLDPITLQVLRKTLKQSFSGCTVILSEHKVEPLLECDSFLMIEKSSVKSYDSIQKLMNEMSDLKQAISPAD	not soluble
MNLFYNPKYVGDVAFLQIEPVEGELNYNKKGNVVEITNEGNVVGYNIFEISKDITIEEKGHIKLTDELVNVFQKRISEAGFDYKLNADLSPKFVVGYVETKDKHPDADKLSVLNVNVGNDTLQIVCGAPNVEAGQKVVVAKVGAVMPSGMVIKDAELRGVASSGMICSMKELNLPNAPEEKGIMVLNDSYEIGQAFFELEHHHHHH	soluble
MGSDKIHHHHHHMITIKEYVVPKSLDEAYELLISRKNNIILGGCGFLKLGSKNIGSAIDLKDLALDYINETDDSILIGADTSLRTLELNKVIKNYCNGVISNAVSNIVGVQFRSGARVGASVFAKYGFSDLIPSLLVVDAKVKLYKKGVMNLADFLENELEKDILIEVILPKKDAIGVFDSIRKCTGDFAVLNGAMLKEGSIYKIAIGARPRRAKIAYKASEILSLENDIEKAGEVSSEELSFGSNIRGSKEYRKDMAKALVVRMYNSIGGECDGK	not soluble
MEQATQQIAISDAAQAHFRKLLDTQEEGTHIRIFVVNPGTPNAECGVSYCPPNAVEESDIEMKYNTFSAFIDEVSLPFLEEAEIDYVTEELGAQLTLKAPNAKMRKVADDAPLIERVEYVIQTQINPQLANHGGRITLIEITEDGYAVLQFGGGCNGCSMVDVTLKDGVEKQLVSLFPNELKGAKDITEHQRGEHSYYLEHHHHHH	soluble
MRAQDLPPLPETPGVYLWKRGEEVLYVGKAKSLRARVKSYFHAEGKARRIAEEATGLDFIATRDEVEALLLEANLIKAHRPLYNVLLKDDKHYPFLKLTNEPFPTLLVVRRVEEDGAKYYGPFPEAGALRRIKTLIDRLFPLRKNSGYPMKRRRYPCLNYSMGRCLAPCVGKADPEAYQEVVRQVEAVLEGRVDGLLQELEAKMREAARRLEFERAAEIRDQMEALRAFFSTDQQAFDPEMGDLDFLGMARSGALAVVQLYQVRSGRILGRISRVVEKEEATDEEILWAFLRDHYLEASPLPPLVLLPFPLEDLESLAELLKRRAGRKVELRVPKKGEKARLLELAERNARLALETELKLRERRGEHPALKALQDLLGLPARPWRLEGYDISHLQGQARVFSIAVFEGGRPKRQEYRRMRLKAGNDDYAAMEEGVFRRYTGSLKDLPLPDLLLIDGGVGQVRAAARALERAGLRLPLVGLAKGEEVLVTPEGRELRLPLTHPALQLLIHLRDEAHQNGLRYHRKRRSEELFRVLQGIPGIGEKRRRLLLERYGGLRALKEAPLEELARLPGMSLEAARALKAALAEEEPA	soluble
MHHHHHHSSGRENLYFQGTFAERYNIVCMLGKGSFGEVLKCKDRITQQEYAVKVINKASAKNKDTSTILREVELLKKLDHPNIMKLFEILEDSSSFYIVGELYTGGELFDEIIKRKRFSEHDAARIIKQVFSGITYMHKHNIVHRDLKPENILLESKEKDCDIKIIDFGLSTCFQQNTKMKDRIGTAYYIAPEVLRGTYDEKCDVWSAGVILYILLSGTPPFYGKNEYDILKRVETGKYAFDLPQWRTISDDAKDLIRKMLTFHPSLRITATQCLEHPWIQKYSSETPTISDLPSLESAMTNIRQFQAEKKLAQAALLYMASKLTTLDETKQLTEIFRKLDTNNDGMLDRDELVRGYHEFMRLKGVDSNSLIQNEGSTIEDQIDSLMPLLDMDGSGSIEYSEFIASAIDRTILLSRERMERAFKMFDKDGSGKISTKELFKLFSQADSSIQMEELESIIEQVDNNKDGEVDFNEFVEMLQNFVRNE	soluble
MRKNILIFSLIAFSLTIHCSEIRVQRSLEESITKDYDQDGVYSSYEKALRRTQESVYVTLPEKRGYWYTMLDRIKAEEKELIPDEKVRMRKR	not soluble
MAHHHHHHMENNNHGCNMHDDNFDLLMKKICNELKKGDKNKNGLIMYNTFIDVLDLFQIEYGSSIIDYLMKHCVVTEDGFVNYKNLWLIHDPSKTMRNNSESVEESINPKFMDIQDRYEDIDKYTQEKNEIIRKLYSQWDKCLLRDDEFKAKLINGNIDITPEFERSLYLYGPSRSLSFANVMKTLYINDSKNRKNRNNFVSKIKDEKWRKLNIDENEQQCFQDIHRNPIAWEGSNVTDADNLIQNVELISNYLRGEENVNMRKEEFISHDFFNNTVKNLIKNYISNKISESEFYLCLNKLNISVTPQLNNLIKCHELDSNGKFKDFATTINRCIPKNLLHSLQRRVQLYGAQKNDKDSKLNFSYNNCCCDRLCPNVTDDNPYSNENIDKH	not soluble
SNAMKLALITDTSAYLPEAIENHEDVYVLDIPIIIDGKTYIEGQNLTLDQYYDKLAASKELPKTSQPSLAELDDLLCQLEKEGYTHVLGLFIAAGISGFWQNIQFLIEEHPNLTIAFPDTKITSAPQGNLVRNALMCSREGMDFDVIVNKIQSQIEKIEGFIVVNDLNHLVKGGRLSNGSAIIGNLLSIKPVLHFNEEGKIVVYEKVRTEKKALKRLAEIVKEMTADGEYDIAIIHSRAQDKAEQLYNLLAKAGLKDDLEIVSFGGVIATHLGEGAVAFGITPKN	soluble
MGSDKIHHHHHHMTNPTLAPQSDEYQQIHNGIVQLLDTARTQTVRSINTIMTATYWEMGRRIVEFEQGGEARAAYGEQLIDRLSQDLSQRYKRGFSASNLWQFKKFYLYFQKIEILQTVSGESLHLAQLAKSFPLPWSAYVRLLSVKNPNARTFYEKETLRNGWSVRQLDRQIATQFYERTLLSHDKSAMLQQPAPAEPNVLPEQAIRDPFILEFLNLKDEYSESDLEDALLSHLMDFMLELGDDFAFVGRQRRLRIDDSWFRVDLLFFHRRLRCLLLVDLKVGKFGYADAGQMNMYLNYAKEHWTMPGENPPVGLVLCAGKGAGEAHYALTGLPNTIMASEYKVQLPDEKLLTDELIRSQTMLETQLTRGGSLTTEKN	not soluble
MSLKLHKGIKEYECKECHRRFAQKVNMLKHCKRHTGIKDFMCELCGKTFSERNTMETHKLIHTVGKQWTCSVCDKKYVTEYMLQKHVQLTHDKVEAQSCQLCGTKVSTRASMSRHMRRKHPEVLAVRIDEGHHHHHH	soluble
MQSVDVAIVGGGMVGLAVACGLQGSGLRVAVLEQRVPEPLAVDALPQLRVSAINAASEKLLTRLGVWQDILARRASCYHGMEVWDKDSFGHISFDDQSMGYSHLGHIVENSVIHYALWNKAQQSSDITLLAPTELQQVAWGENETFLTLKDGSMLTARLVIGADGANSWLRNKADIPLTFWDYQHHALVATIRTEEPHDAVARQVFHGEGILAFLPLSDPHLCSIVWSLSPEEAQRMQQASEDEFNRALNIAFDNRLGLCKVESARQVFPLTGRYACQFAAHRLALVGDAAHTIHPLAGQGVNLGFMDAAELIAELKRLHRQGKDIGQYIYLRRYERSRKHSAALMLAGMQGFRDLFSGANPAKKLLRDIGLKLADTLPGVKPQLIRQAMGLNDLPEWLRLEHHHHHH	soluble
MSLYFLLQKVILPNIDLCTEEQLYFRTQGGKYNYTSRNLLVPRHKVAYFDTFFNAFSIKKWKKYTTLTSLFLRVNIIGRGTITVRHKENGVIRVLKQIDFKSSCNISDEIEIDISKINFGYIYVEWQSDEDSVLNGFELLTKDHVSKSSMALVITTYNRKEAVTKTINRINKTLLTQSEFKDRFKLIVVNNGEAINHPSGNGIIVINNENLGGSGGFMRGLIEAGKINDVKHVIFMDDDGSCEIESICRTHAFLLMAKDKNTVVTGCMLFEDNPAIIHESGAIWHRDFLHYPDKHYLDAREIDSLDTFDNERKIGYGGWWFFAFNINAIEYYSFPFFVRGDDLLFGYMHKKHNIVTLNGVASWQMDFERKISVLNSYLNFRTVAVPALISKREGHHHHHH	not soluble
MSLDKDTVYAVVDIETTGTSVTDGDRIIQIGCVFVQHNQVINHFETDVNPLKEIPAAISRLTGITNKRVRHAPLFDDVAGTLYSLLTNTVFVAHNVNFDLPFINAELERVGYPALPIAAVDTVSLSQILLPTATSFRLRDLSRLFNIEHDNPHSADSDASATAELFIFLFRRLRALPMVTLQRMIDLQADLPLQTTTLFRVAQQLNEEGHHHHHH	not soluble
GPGSMEGLSPPETDECAKPHNRECNTTPSSGSPPSNIPPQQLLCSVRSGMHSNLTESAWESRESNSGYAHEKQSGVDGDACTRYYQRLHRFYEQYNPKNLSRISEYLAAYKGKEEQLMAILVGKYGPEPVDRGPQTNLSCCSGDDSVMHFSGKRYRIPTVVTPQQGNTDCETPYWGNSPLIGERDILGLLSSLETANVELQKCYIGPSAQHPTSSWNGMTYVTRAEIFTPNEETFLGHKWTFTLGSKKVLVHEGSAYHRATFFCTDECQYRGRHERWRLCVYTSSVDSLYLVRVIWDPVVYLEPLPLDRSALSQHSSSEAMPIAGSSVSYQTSCGKGNTEPEQPLISATMINIMTMLENMDKKISGRFDALEARFSFLESKLLGAVDDKQRTEDR	not soluble
